For this series, the target named is human fibrinogen (UniProt P02671).

Take [cThrombin][S]: the “fibrin gel formation by primed hMSCs (confocal microscopy, Alexa-594-tagged fibrinogen)” value was “[cThrombin][S] bound to cell membranes was able to cleave fibrinogen to form a fibrin gel”.
Consider cationised thrombin, for which the “fibrin formation, absorbance at 600 nm” value was “During cationisation, the activity of thrombin was retained up to 120 minutes of cationisation, although the activity was gradually decreased with increased cationisation duration”.

These data come from patent US20210060174.
